This note sets out measurements from article PMC12747262 (bioRxiv, 2025).

B2: TTC7A (natural protein)
chain: MAAKGAHGSYLKVESELERCRAEGHWDRMPELVRQLQTLSMPGGGGNRRGSPSAAFTFPDTDDFGKLLLAEALLEQCLKENHAKIKDSMPLLEKNEPKMSEAKNYLSSILNHGRLSPQYMCEAMLILGKLHYVEGSYRDAISMYARAGIDDMSMENKPLYQMRLLSEAFVIKGLSLERLPNSIASRFRLTEREEEVITCFERASWIAQVFLQELEKTTNNSTSRHLKGCHPLDYELTYFLEAALQSAYVKNLKKGNIVKGMRELREVLRTVETKATQNFKVMAAKHLAGVLLHSLSEECYWSPLSHPLPEFMGKEESSFATQALRKPHLYEGDNLYCPKDNIEEALLLLLISESMATRDVVLSRVPEQEEDRTVSLQNAAAIYDLLSITLGRRGQYVMLSECLERAMKFAFGEFHLWYQVALSMVACGKSAYAVSLLRECVKLRPSDPTVPLMAAKVCIGSLRWLEEAEHFAMMVISLGEEAGEFLPKGYLALGLTYSLQATDATLKSKQDELHRKALQTLERAQQLAPSDPQVILYVSLQLALVRQISSAMEQLQEALKVRKDDAHALHLLALLFSAQKHHQHALDVVNMAITEHPENFNLMFTKVKLEQVLKGPEEALVTCRQVLRLWQTLYSFSQLGGLEKDGSFGEGLTMKKQSGMHLTLPDAHDADSGSRRASSIAASRLEEAMSELTMPSSVLKQGPMQLWTTLEQIWLQAAELFMEQQHLKEAGFCIQEAAGLFPTSHSVLYMRGRLAEVKGNLEEAKQLYKEALTVNPDGVRIMHSLGLMLSRLGHKSLAQKVLRDAVERQSTCHEAWQGLGEVLQAQGQNEAAVDCFLTALELEASSPVLPFSIIPREL

Experiment [1] deals with TTC7B-FAM126B (1–308) heterodimer (UniProt Q86TV6;Q8IXS8). The experiment is described as follows: BLI.
Experiment [2] addresses TTC7B-FAM126A (1–308) heterodimer (UniProt Q86TV6;Q9BYI3). In words: BLI.
Experiment [3] addresses TTC7A-FAM126B (1–308) heterodimer (UniProt Q9ULT0;Q8IXS8). In words: BLI.
Experiment [4] deals with TTC7A-FAM126A (1–308) heterodimer (UniProt Q9ULT0;Q9BYI3). The experiment is described as follows: BLI.
Experiment [5] has as its target T1, PI4KA (UniProt P42356 1-2102). The experiment is described as follows: SEC.
Experiment [6] addresses T2, TTC7B (from the E. coli dimers) (UniProt Q86TV6 1-843).
T2 sequence: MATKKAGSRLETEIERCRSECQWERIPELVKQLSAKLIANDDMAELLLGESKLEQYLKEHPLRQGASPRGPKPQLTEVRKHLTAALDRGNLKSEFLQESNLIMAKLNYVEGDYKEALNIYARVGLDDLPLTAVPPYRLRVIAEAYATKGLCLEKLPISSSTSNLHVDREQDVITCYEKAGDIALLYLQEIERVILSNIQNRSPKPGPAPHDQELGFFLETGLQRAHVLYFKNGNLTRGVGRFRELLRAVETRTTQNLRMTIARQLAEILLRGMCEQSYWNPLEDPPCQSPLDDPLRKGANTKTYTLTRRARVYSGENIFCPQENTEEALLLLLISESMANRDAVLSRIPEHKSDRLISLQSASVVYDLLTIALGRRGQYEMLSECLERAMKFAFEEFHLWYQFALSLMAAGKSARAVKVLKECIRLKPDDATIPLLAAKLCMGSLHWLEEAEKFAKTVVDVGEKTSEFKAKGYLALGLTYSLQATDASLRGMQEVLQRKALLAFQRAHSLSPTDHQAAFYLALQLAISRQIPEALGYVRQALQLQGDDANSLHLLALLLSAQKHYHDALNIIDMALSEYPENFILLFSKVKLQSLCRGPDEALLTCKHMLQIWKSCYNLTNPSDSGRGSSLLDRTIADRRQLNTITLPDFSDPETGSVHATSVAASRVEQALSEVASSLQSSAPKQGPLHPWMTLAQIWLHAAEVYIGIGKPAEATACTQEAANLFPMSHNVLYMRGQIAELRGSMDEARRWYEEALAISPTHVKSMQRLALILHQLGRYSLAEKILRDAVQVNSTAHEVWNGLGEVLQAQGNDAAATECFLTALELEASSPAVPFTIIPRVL
In words: SEC.

The experiment “TTC7A” addresses B2. In words: SEC.
For experiment [7], the target named is T1, PI4KA. In words: cryo-EM structure.

B1: His-tagged MBP-EFR3B (716–787) (domain or fragment)
chain: VPAEEITYETLKKAIVDSVAVEEQERERRRQVVEKFQKAPFEEIAAHCGARASLLQSKLNQIFEITIRPPPS
B1: the Kd in experiment [1] and in experiment [2] was ~0.3 nM each time. The binding result in experiment [3] and in experiment [4] was “binds” in each case.
B2: in the experiment with PI4KA [5], the binding result is listed as “binds”.

B3: FAM126B (1–308) (from the E. coli dimer) (domain or fragment)
chain: MLGTDRCVVEEWLSEFKALPDTQITSYAATLHRKKTLVPALYKVIQDSNNELLEPVCHQLFELYRSSEVRLKRFTLQFLPELMWVYLRLTVSRDRQSNGCIEALLLGIYNLEIADKDGNNKVLSFTIPSLSKPSIYHEPSTIGSMALTEGALCQHDLIRVVYSDLHPQRETFTAQNRFEVLSFLMLCYNSAIVYMPASSYQSLCRMGSRVCVSGFPRQHEKHWKELCGRIVLDPEFMVQLLTGVYYAMYNGQWDLGQEVLDDIIYRAQLELFSQPLLVANAMKNSLPFDAPDSTQEGQKVLKVEVTPT
Take B3: the binding result in experiment [6] was “binds”.

B4: FAM126B (1–308) (from the Sf9 dimer) (domain or fragment)
chain: MLGTDRCVVEEWLSEFKALPDTQITSYAATLHRKKTLVPALYKVIQDSNNELLEPVCHQLFELYRSSEVRLKRFTLQFLPELMWVYLRLTVSRDRQSNGCIEALLLGIYNLEIADKDGNNKVLSFTIPSLSKPSIYHEPSTIGSMALTEGALCQHDLIRVVYSDLHPQRETFTAQNRFEVLSFLMLCYNSAIVYMPASSYQSLCRMGSRVCVSGFPRQHEKHWKELCGRIVLDPEFMVQLLTGVYYAMYNGQWDLGQEVLDDIIYRAQLELFSQPLLVANAMKNSLPFDAPDSTQEGQKVLKVEVTPT
As for B4, the binding result with TTC7A is “binds”.

B5: FAM126A (1–308) (from the Sf9 complexes) (domain or fragment)
chain: MFTSEKGVVEEWLSEFKTLPETSLPNYATNLKDKSSLVSSLYKVIQEPQSELLEPVCHQLFEFYRSGEEQLLQFTLQFLPELIWCYLAVSASRNVHSSGCIEALLLGVYNLEIVDKQGHTKVLSFTIPSLSKPSVYHEPSSIGSMALTESALSQHGLSKVVYSGPHPQREMLTAQNRFEVLTFLLLCYNAALTYMPSVSLQSLCQICSRICVCGYPRQHVRKYKGISSRIPVSSGFMVQMLTGIYFAFYNGEWDLAQKALDDIIYRAQLELYPEPLLVANAIKASLPHGPMKSNKEGTRCIQVEITPT
B5: the binding result with TTC7A is “binds”.

B6: TTC7B (from the Sf9 PI4KA complex) (natural protein)
chain: MATKKAGSRLETEIERCRSECQWERIPELVKQLSAKLIANDDMAELLLGESKLEQYLKEHPLRQGASPRGPKPQLTEVRKHLTAALDRGNLKSEFLQESNLIMAKLNYVEGDYKEALNIYARVGLDDLPLTAVPPYRLRVIAEAYATKGLCLEKLPISSSTSNLHVDREQDVITCYEKAGDIALLYLQEIERVILSNIQNRSPKPGPAPHDQELGFFLETGLQRAHVLYFKNGNLTRGVGRFRELLRAVETRTTQNLRMTIARQLAEILLRGMCEQSYWNPLEDPPCQSPLDDPLRKGANTKTYTLTRRARVYSGENIFCPQENTEEALLLLLISESMANRDAVLSRIPEHKSDRLISLQSASVVYDLLTIALGRRGQYEMLSECLERAMKFAFEEFHLWYQFALSLMAAGKSARAVKVLKECIRLKPDDATIPLLAAKLCMGSLHWLEEAEKFAKTVVDVGEKTSEFKAKGYLALGLTYSLQATDASLRGMQEVLQRKALLAFQRAHSLSPTDHQAAFYLALQLAISRQIPEALGYVRQALQLQGDDANSLHLLALLLSAQKHYHDALNIIDMALSEYPENFILLFSKVKLQSLCRGPDEALLTCKHMLQIWKSCYNLTNPSDSGRGSSLLDRTIADRRQLNTITLPDFSDPETGSVHATSVAASRVEQALSEVASSLQSSAPKQGPLHPWMTLAQIWLHAAEVYIGIGKPAEATACTQEAANLFPMSHNVLYMRGQIAELRGSMDEARRWYEEALAISPTHVKSMQRLALILHQLGRYSLAEKILRDAVQVNSTAHEVWNGLGEVLQAQGNDAAATECFLTALELEASSPAVPFTIIPRVL
With B6, in the experiment with PI4KA [7], the binding result is “binds”.
